Eight substances from patent publication US20250320281A1 can be followed below.

Assay in all cases: cell-based or functional assay
The target of experiment [1] is HIV-1 envelope glycoprotein (Env) of isolate MGRM-C-006 (HIV-1).
For experiment [2], the target named is HIV-1 Env of isolate 92BR020 (HIV-1).
Experiment [3] has as its target HIV-1 Env of isolate MGRM-Chronic-B-020 (subtype B) (HIV-1).
For experiment [4], the target named is HIV-1 Env of pseudovirus isolate MGRM-G-028 (HIV-1).
In experiment [5] the target is HIV-1 Env of isolate MGRM-Chronic-B-011 (subtype B) (HIV-1).
In experiment [6] the target is HIV-1 Env of isolate 93WR029 (HIV-1).
The target of experiment [7] is HIV-1 Env of isolate MGRM-Chronic-B-002 (subtype B) (HIV-1).
Experiment [8] deals with HIV-1 Env of isolate 92UG031 (HIV-1).
Experiment [9] concerns the target HIV-1 envelope glycoprotein (Env) of isolate MGRM-C-024 (HIV-1).
Experiment [10] concerns the target HIV-1 envelope glycoprotein (Env) of isolate MGRM-C-023 (HIV-1).
In experiment [11] the target is HIV-1 Env of isolate 93IN905 (subtype C) (HIV-1).
Experiment [12] concerns the target HIV-1 Env of isolate MGRM-A-005 (HIV-1).
Experiment [13] concerns the target HIV-1 Env of isolate 98IN022 (subtype C) (HIV-1).
Experiment [14] has as its target HIV-1 envelope glycoprotein (Env) of isolate MGRM-C-009 (HIV-1).
For experiment [15], the target named is HIV-1 Env of isolate TRJ04551.58 (subtype B) (HIV-1).
Experiment [16] deals with HIV-1 JRFL Env (pseudovirus, clade B) (HIV-1).
Experiment [17] addresses HIV-1 Env of isolate MGRM-AG-005 (clade AG), on pseudovirus (HIV-1).
For experiment [18], the target named is HIV-1 JRFL Env (pseudovirus) (HIV-1).
The target in experiment [19] is aMLV envelope (pseudovirus, negative control).
The target of experiment [20] is HIV-1 Env of pseudovirus MGRM-F1-016 (HIV-1).
Experiment [21] has as its target HIV-1 Env of isolate APV_6, clade B, on pseudovirus (HIV-1).
In experiment [22] the target is HIV-1 Env of pseudovirus MGRM-AG-013 (clade CRF_AG) (HIV-1).
For experiment [23], the target named is HIV-1 Env of isolate NL43, clade B, on pseudovirus (HIV-1).
In experiment [24] the target is HIV-1 Env of pseudovirus MGRM-F1-006 (HIV-1).
Experiment [25] concerns the target HIV-1 Env of pseudovirus MGRM-G-001 (clade G) (HIV-1).
For experiment [26], the target named is HIV-1 Env of pseudovirus MGRM-F1-015 (HIV-1).
Experiment [27] has as its target HIV-1 Env of isolate MGRM-D-005 (clade D pseudovirus) (HIV-1).
Experiment [28] has as its target HIV-1 Env of pseudovirus MGRM-AG-011 (clade CRF_AG) (HIV-1).
For experiment [29], the target named is HIV-1 envelope glycoprotein (Env) of isolate 93RW029, clade A (HIV-1).
Experiment [30] has as its target HIV-1 Env of pseudovirus MGRM-F1-012 (HIV-1).
Experiment [31] deals with HIV-1 Env of isolate MGRM-D-028 (clade D pseudovirus) (HIV-1).
The target of experiment [32] is HIV-1 Env of pseudovirus MGRM-AE-003 (clade CRF01_AE) (HIV-1).

The IC50 is the concentration at which inhibition is half-maximal. Low values mean greater potency in that assay, high ones weaker potency in that assay.

Chain of 5329_C19 (PGT-136) (antibody) (VH): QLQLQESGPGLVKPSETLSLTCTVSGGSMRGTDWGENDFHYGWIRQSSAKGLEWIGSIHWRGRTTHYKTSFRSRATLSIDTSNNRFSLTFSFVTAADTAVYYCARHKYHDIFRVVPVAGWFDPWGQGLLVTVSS
Chain of 5329_C19 (PGT-136) (antibody) (VL): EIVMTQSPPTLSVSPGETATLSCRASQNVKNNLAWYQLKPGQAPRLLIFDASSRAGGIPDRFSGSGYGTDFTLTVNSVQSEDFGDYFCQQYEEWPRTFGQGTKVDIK
Chain of 5345_I01 (PGT-137) (antibody) (VH): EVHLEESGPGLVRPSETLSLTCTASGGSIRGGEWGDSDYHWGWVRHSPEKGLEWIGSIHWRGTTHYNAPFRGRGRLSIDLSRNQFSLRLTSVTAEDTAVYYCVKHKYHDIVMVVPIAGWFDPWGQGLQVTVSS
Chain of 5345_I01 (PGT-137) (antibody) (VL): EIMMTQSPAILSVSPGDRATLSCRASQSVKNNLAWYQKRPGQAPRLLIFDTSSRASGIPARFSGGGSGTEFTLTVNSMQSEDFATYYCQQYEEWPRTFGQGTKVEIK

5136_H01 (PGT-131) (antibody): the IC50 (µg/mL), pseudovirus neutralization in experiment [1] was 0.611 µg/mL; in [4], 0.466 µg/mL; in experiment [9], more than 50 µg/mL; in experiment [10] it was 0.143 µg/mL; in experiment [14], more than 50 µg/mL. Further, the neutralization IC50 in experiment [2] was 6.16 µg/mL. The IC50 neutralization in experiment [3] was 0.053 µg/mL; in experiment [5] it was 6.47 µg/mL; in experiment [7] it was more than 50 µg/mL; in experiment [11] it was 0.177 µg/mL; in experiment [13], more than 50 µg/mL; in [15], 0.088 µg/mL. Also, the IC50 in experiment [6], in experiment [8] and in experiment [12] was more than 50 µg/mL throughout.
For the substance 5343_B08 (PGT-135) (antibody), the IC50 (µg/mL), pseudovirus neutralization in [1] was more than 50 µg/mL; in [4], more than 50 µg/mL; in [9] it was more than 50 µg/mL; in [10], 0.061 µg/mL; in [14] it was more than 50 µg/mL. For the same substance, the neutralization IC50 in [2] amounted to 0.073 µg/mL. Moreover, the IC50 neutralization in [3] was 0.057 µg/mL; in [5], more than 50 µg/mL; in experiment [7] it was more than 50 µg/mL; in experiment [16], more than 10 µg/mL; in experiment [11], 0.011 µg/mL; in [13], 0.014 µg/mL. In experiment [15], the IC50 neutralization is more than 50 µg/mL. Also, the IC50 in [6], in experiment [8] and in experiment [12] was more than 50 µg/mL in each case. In addition, in experiment [17], the IC50, pseudovirus neutralization is more than 10 µg/mL. In experiment [18], this substance registered an IC50 (neutralizing activity, pseudovirus) of more than 10 µg/mL.
On to 5147_N06 (PGT-130) (antibody), for which the IC50 (µg/mL), pseudovirus neutralization is 0.095 µg/mL in experiment [1]; 0.074 µg/mL in experiment [4]; more than 50 µg/mL in [9]; 0.151 µg/mL in experiment [10]; more than 50 µg/mL in [14]. In addition, in [2], the neutralization IC50 worked out at 1.4 µg/mL. In addition, the IC50 neutralization was 0.014 µg/mL in experiment [3]; 0.153 µg/mL in experiment [5]; more than 50 µg/mL in experiment [7]; 0.0346 µg/mL in [16]; 0.02 µg/mL in [11]; more than 50 µg/mL in [13]. Further, in experiment [15], the IC50 neutralization was 0.023 µg/mL. The IC50 was 34.3 µg/mL in [6], more than 50 µg/mL in experiment [8] and more than 50 µg/mL in experiment [12]. For the same substance, the Neutralization by PGT-130, IC50 in experiment [19] was more than 10 µg/mL; in experiment [18], 0.0346 µg/mL. Further, the figures for the Neutralization by PGT-130, IC80 in experiment [19] and in experiment [18] were more than 10 µg/mL and 0.751 µg/mL, respectively. The Neutralization by PGT-130, IC90 in [19] is more than 10 µg/mL; in [18], 5.72 µg/mL. In addition, the Neutralization by PGT-130, IC95 in [19] and in experiment [18] was more than 10 µg/mL in each case. The figures for the neutralization IC50 (pseudovirus) in [19] and in [18] were more than 10 µg/mL and 0.0346 µg/mL, respectively. The same substance displayed an IC50, pseudovirus neutralization in [17] of 0.947 µg/mL.
Turning to 5345_I01 (PGT-137) (antibody), the IC50 (µg/mL), pseudovirus neutralization in [1] is more than 50 µg/mL; in [4] it was more than 50 µg/mL; in [9] it was more than 50 µg/mL; in [10], 0.23 µg/mL; in [14], more than 50 µg/mL. The substance also registered a neutralization IC50 in experiment [2] of 7.81 µg/mL. For the same substance, the IC50 neutralization in experiment [3] was 32.9 µg/mL; in experiment [5] it was more than 50 µg/mL; in experiment [7], more than 50 µg/mL; in experiment [11], 0.042 µg/mL; in experiment [13], 0.408 µg/mL; in [15], more than 50 µg/mL. Further, the IC50 in experiment [6], in experiment [8] and in experiment [12] was more than 50 µg/mL each time.
As for 5114_A19 (PGT-128) (antibody), the IC50 (µg/mL), pseudovirus neutralization is 0.014 µg/mL in [1]; 0.008 µg/mL in experiment [4]; more than 50 µg/mL in experiment [9]; 0.026 µg/mL in experiment [10]; more than 50 µg/mL in [14]. In experiment [2], the neutralization IC50 is 0.009 µg/mL. For the same substance, the IC50 neutralization in experiment [3] came to 0.007 µg/mL; in [5], 0.02 µg/mL; in experiment [7], 0.036 µg/mL; in experiment [11], 0.009 µg/mL; in experiment [13], 0.014 µg/mL; in experiment [15] it was 0.019 µg/mL. Moreover, the IC50 in experiment [6], in experiment [8] and in experiment [12] was more than 50 µg/mL throughout.
As for 2F5 (antibody), the IC50 (µg/ml), pseudovirus neutralization in experiment [20] is 21.5 µg/mL; in experiment [21], 0.25 µg/mL; in experiment [23], 2.02 µg/mL; in experiment [24] it was 1.1 µg/mL; in [26], 0.1 µg/mL; in [27], more than 50 µg/mL. Further, the IC50 (µg/ml), pseudovirus neutralization in [29], in experiment [30] and in experiment [31] was more than 50 µg/mL throughout. The IC50 was 1.79 µg/mL in experiment [22], 4.1 µg/mL in experiment [25], more than 50 µg/mL in experiment [28] and 0.24 µg/mL in experiment [32].
1495_C14 (PGC14) (antibody): the IC50 (µg/ml), pseudovirus neutralization in experiment [20] is more than 50 µg/mL; in experiment [21] it was 23 µg/mL; in experiment [23], 40 µg/mL; in experiment [24], more than 50 µg/mL; in experiment [26], more than 50 µg/mL; in experiment [27] it was more than 50 µg/mL. The IC50 (µg/ml), pseudovirus neutralization in experiment [29] is 42 µg/mL; in experiment [30], more than 50 µg/mL; in experiment [31], more than 50 µg/mL. In addition, the IC50 in experiment [22], in experiment [25], in experiment [28] and in experiment [32] was more than 50 µg/mL each time.
As for 5329_C19 (PGT-136) (antibody), the IC50 (µg/mL), pseudovirus neutralization is more than 50 µg/mL in experiment [1]; more than 50 µg/mL in experiment [4]; more than 50 µg/mL in experiment [9]; 3.2 µg/mL in [10]; more than 50 µg/mL in experiment [14]. Besides, in experiment [2], the neutralization IC50 stood at 8.61 µg/mL. Besides, the IC50 neutralization in [3] is more than 50 µg/mL; in experiment [5], more than 50 µg/mL; in experiment [7] it was more than 50 µg/mL; in [16], more than 10 µg/mL; in [11], 0.011 µg/mL; in experiment [13] it was 13.6 µg/mL. In [15], this substance showed an IC50 neutralization of more than 50 µg/mL. Besides, the IC50 in [6], in experiment [8] and in experiment [12] was more than 50 µg/mL throughout. For the same substance, in [17], the IC50, pseudovirus neutralization is more than 10 µg/mL. Further, in experiment [18], the IC50 (neutralizing activity, pseudovirus) was more than 10 µg/mL.
